Measurements: US20090123479A1 (published 2009)
Numbering of substitutions follows the chain as printed.

Key:
recombinant human IL-23 [1] = target: T1, recombinant human IL-23 (human, UniProt Q9NPF7 20-189; P29460 23-328); test: SPR (Biacore 3000), hybridoma supernatant mAb captured on anti-murine IgG, human IL-23 analyte, 1:1 model, 25 C
T1 construct: also called hIL-23
T1 sequence 1: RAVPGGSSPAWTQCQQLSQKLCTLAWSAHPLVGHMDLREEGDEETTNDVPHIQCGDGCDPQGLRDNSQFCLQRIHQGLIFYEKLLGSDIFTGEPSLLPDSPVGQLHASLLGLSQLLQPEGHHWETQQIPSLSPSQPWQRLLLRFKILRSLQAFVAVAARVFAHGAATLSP
T1 sequence 2: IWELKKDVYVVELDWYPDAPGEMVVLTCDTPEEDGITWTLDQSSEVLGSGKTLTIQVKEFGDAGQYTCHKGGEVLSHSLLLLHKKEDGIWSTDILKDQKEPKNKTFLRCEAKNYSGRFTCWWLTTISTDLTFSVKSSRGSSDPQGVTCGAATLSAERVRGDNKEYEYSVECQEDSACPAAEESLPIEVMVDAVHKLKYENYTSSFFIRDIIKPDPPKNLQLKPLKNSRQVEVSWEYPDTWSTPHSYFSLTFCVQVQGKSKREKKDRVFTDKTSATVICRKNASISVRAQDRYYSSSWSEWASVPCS
Description: (§1) Anti-murine IgG was immobilised on a CM5 sensorchip using amine coupling chemistry. Anti-IL-23 hybridoma antibody sample was injected over the surface and the murine mAb captured. Subsequently recombinant human IL-23, recombinant cynomologus IL-23 or recombinant human IL-12 was flowed over the captured antibody surface at 5 different concentrations (range 0 nM-91 nM) to obtain binding sensorgrams. Regeneration of the surface after antibody and antigen injections was done by injecting 0.1 M phosphoric acid for 3 minutes. Double referencing was used on all sensorgrams with a buffer injection over the anti-murine IgG sensorchip surface. The experiment was performed at 25° C. in HBS-EP buffer. Resulting sensorgram data was analysed using the 1:1 binding model incorporated within the Biaevaluation software for the Biacore 3000 instrument. Data presented in Table 2 are from using hybridoma supernatant taken from a tissue culture flask.

Endogenous human IL-23 = target: T2, Endogenous human IL-23 (human, UniProt Q9NPF7 20-189; P29460 23-328); test: receptor inhibition ELISA: plate coated with recombinant human IL-23 receptor, endogenous human IL-23 at 3.5 ng/ml pre-incubated with titrated purified antibody, bound IL-23 detected with biotinylated anti-human IL-12; 1% BSA
T2 construct: also called endogenous human IL-23 from stimulated dendritic cells
T2 sequence 1: T1 sequence 1
T2 sequence 2: T1 sequence 2
Description: Recombinant human IL-23 Receptor (R&D systems 1400-IR-050) was coated onto 96 well plates at a concentration of 1 μg/ml. Endogenous human IL-23 at 3.5 ng/ml final, was pre incubated for 1 hour with a titration of purified antibody material before being added to the pre-coated plates. Detection was performed with biotinylated anti-human 1L12 (R&D systems BAF-219) followed by Streptavidin-HRP (GE Healthcare RPN 4401). This neutralisation ELISA used 1% BSA.

[2] = target: T3, recombinant cynomologus IL-23 (cynomolgus, limits assumed); test: SPR (Biacore 3000), hybridoma supernatant mAb captured on anti-murine IgG, cynomologus IL-23 analyte, 1:1 model, 25 C
T3 construct: also called cynomolgus IL-23; cyno IL23
T3 chain 1: T1 sequence 1 with T12A, H75R, L131P
T3 chain 2: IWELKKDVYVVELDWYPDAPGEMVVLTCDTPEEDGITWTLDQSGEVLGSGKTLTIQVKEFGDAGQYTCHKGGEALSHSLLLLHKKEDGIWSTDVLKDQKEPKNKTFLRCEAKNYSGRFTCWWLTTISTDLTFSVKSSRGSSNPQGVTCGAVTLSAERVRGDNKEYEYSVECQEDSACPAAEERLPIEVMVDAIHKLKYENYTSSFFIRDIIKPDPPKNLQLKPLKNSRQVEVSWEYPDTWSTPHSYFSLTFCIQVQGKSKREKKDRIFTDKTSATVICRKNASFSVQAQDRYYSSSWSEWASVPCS
Description: as §1

recombinant human IL-23 [3] = target: T1, recombinant human IL-23; test: IL-23/IL-23R inhibition ELISA (optimised protocol, OD450): plate coated with human IL23R Fc chimera, antibody pre-incubated with constant human IL-23, bound IL-23 detected with biotinylated anti-human IL-12; purified antibody
Description: (§2) Optimised protocol: Plates were coated with human IL23R Fc chimera at […] (phosphate buffered saline). 50 μl/well of this mixture was incubated overnight at 4° C. The plates were then washed three times with Phosphate Buffered Saline with 0.05% Tween 20 (PBST). Plates were blocked with 4% skim milk powder (Fluka BioChemika #70166) PBST 100 μl/well for a minimum of 1 hour at room temperature. The plates were then washed three times with Phosphate Buffered Saline+0.05% Tween 20 (PBST). Various concentrations of antibody were incubated in a separate plate with a constant concentration of IL-23 for 1 hour at room temperature. 50 ul of each mixture were transferred to the assay plate and incubated at RT for 1 hr. They were then washed three times with Phosphate Buffered Saline+0.05% Tween 20 (PBST). Bound IL23 was detected by anti human 1L12 Biotin labelled Ab (R&D systems BAF219) diluted to 100 ng/ml in 4% skim milk powder (Fluka BioChemika #70166) PBST. 50 μl/well of the biotinylated antibody was added and incubated at RT for 1 hour. The plates were then washed three times with Phosphate Buffered Saline+0.05% Tween 20 (PBST). SA HRP (GE healthcare RPN4401) was diluted 1/4000 in 4% skim m ilk powder (Fluka BioChemika #70166) PBS, 50 μl/well was added to the plates. The plates were then washed three times with Phosphate Buffered Saline+0.05% Tween 20 (PBST). 50 ul/well of TMB was added to the plates and incubated at RT for 15 min. 25 μl/well of 3 MH₂SO₄ was added to the wells already containing TMB. The plate was read at OD450 nm using the SOftmaxPRO versamax plate reader.

recombinant human IL-23 [4] = target: T1, recombinant human IL-23; test: sandwich ELISA (optimised protocol, OD450): plate coated with anti-human IL-12, antibody pre-incubated with constant human IL-23, bound antibody detected with anti-human IgG gamma chain HRP; purified antibody
Description: Optimised assay conditions: Plates were coated with anti human IL12 at 2 μg/diluent (phosphate buffered saline). 50 μl/well of this mixture was incubated overnight at 4° C. The plates were then washed three times with Phosphate Buffered Saline with 0.05% Tween 20 (PBST). Plates were blocked with 4% skim milk powder (Fluka BioChemika #70166) PBS 200 μl/well for a minimum of 1 hour at room temperature. The plates were then washed three times with Phosphate Buffered Saline+0.05% Tween 20 (PBST). Various concentrations of antibody were incubated in a separate plate with a constant concentration of IL-23 for 1 hour at room temperature. 50 ul of each mixture were transferred to the assay plate and incubated at RT for 1 hr. They were then washed three times with Phosphate Buffered Saline+0.05% Tween 20 (PBST). […] 50 μl/well of the detection antibody was added and incubated at RT for 1 hour. The plates were then washed three times with Phosphate Buffered Saline+0.05% Tween 20 (PBST). 50 μl/well of TMB was added to the plates and incubated at RT for 10 min. 50 μl/well of 1 MH₂SO₄ was added. The plate was read at OD450 nm using the SOftmaxPRO versamax plate reader.

[5] = target: T3, recombinant cynomologus IL-23; test: IL-23/IL-23R inhibition ELISA (optimised protocol, OD450): plate coated with human IL23R Fc chimera, antibody pre-incubated with constant cynomolgus IL-23, bound IL-23 detected with biotinylated anti-human IL-12; purified antibody
Description: as §2

recombinant human IL-23 [6] = target: T1, recombinant human IL-23; test: SPR (Biacore 3000), CHO supernatant antibody captured on Protein A or anti-human IgG, IL-23 analyte at 256, 64, 16, 4 nM
recombinant human IL-23 [7] = target: T1, recombinant human IL-23; test: SPR (Biacore T100), CHO supernatant antibody captured on Protein A or anti-human IgG, IL-23 analyte at 256, 64, 16, 4, 1 nM
recombinant human IL-23 [8] = target: T1, recombinant human IL-23; test: SPR (Biacore T100), purified antibody captured on anti-human IgG, IL-23 analyte, 1:1 model
Description: Biacore analysis was carried out using a capture surface on a CM5 chip. Anti-human IgG (BR-1008-39) was used as the capturing agent. Anti-human IgG was coupled to a CM5 biosensor chip by primary amine coupling. Humanized antibody was captured on this immobilised surface and defined concentrations of IL-23 were passed over this captured surface. An injection of buffer over the captured antibody surface was used for double-referencing. […] T100 Biacore machine was used to generate the data; all runs were carried out at 25° C. using HBS EP. Data was analysed using the software inherent to the machine and fitted to the 1:1 model of binding. Tables 7 and 8 detail the IL-23 binding analysis carried out on the 8C92H6.HC1LC1 chimera and selected humanized variants in two separate experiments. Data presented in Tables 7 and 8 are from purified antibody samples. The data shown for the humanized variants is representative of a number of runs. The chimeric mAb (8C9H6.HC1LC1) was only run once in each experiment, so data shown for this mAb is from that one run.

B1: murine mAb 8C9 2H6 (antibody, V domains shown)
VH: QVQLQQSGAELARPGTSVKLSCKASGYTFTSYGITWVKQRTGQGLEWIGENYPRSGNTYYNEKFKGKATLTADKSSSTAYMELRSLTSEDSAVYFCARCEFISTVVAPYYYALDYWGQGTSVTVSS
VL: DIVLTQSPASLAVSLGQKATISCKASKKVTIFGSISALHWYQQKPGQPPKLIYNGAKLESGVSARFSDSGSQNRSPFGNQLSFTLTIDPVEADDAATYYCLQNKEVPYTFGGGTKLEIK
notes: Murine hybridoma antibody; also called mouse parental; IL-23 murine 8C92H6 mAb
Kd (recombinant human IL-23 [1]): 2990 pM | koff (recombinant human IL-23 [1]): 0.000301 s⁻¹ | kon (recombinant human IL-23 [1]): 101000 M⁻¹ s⁻¹ | IC50 (read off the curve) (Endogenous human IL-23): ~0.06 µg/mL | Kd [2]: 3380 pM | koff [2]: 0.000369 s⁻¹ | kon [2]: 110000 M⁻¹ s⁻¹

B2: A3N1 (antibody, human IgG1, kappa, V domains shown)
VH: QVQLVQSGAEVKKPGSSVKVSCKASGYTFTSYGITWVRQAPGQGLEWMGENYPRSGNTYYNEKFKGRVTITADKSTSTAYMELSSLRSEDTAVYYCARSEFISTVVAPYYYALDYWGQGTLVTVSS
VL: DIVMTQTPLSLSVTPGQPASISCKASKKVTIFGSISALHWYLQKPGQPPQLIYNGAKLESGVSDRFSDSGSQNRSPFGNQLSFTLKISRVEAEDVGVYYCLQNKEVPYTFGGGTKVEIKR
notes: Full length chains
IC50 (read off the curve) (recombinant human IL-23 [3]): ~1000 pM | EC50 (read off the curve) (recombinant human IL-23 [4]): ~40 pM | IC50 (read off the curve) [5]: ~900 pM | Kd (recombinant human IL-23 [6]): 2300 pM | koff (recombinant human IL-23 [6]): 0.00039 s⁻¹ | kon (recombinant human IL-23 [6]): 170000 M⁻¹ s⁻¹ | Kd (recombinant human IL-23 [7]): 4100 pM | koff (recombinant human IL-23 [7]): 0.00035 s⁻¹ | kon (recombinant human IL-23 [7]): 84000 M⁻¹ s⁻¹

B3: A3N2 (antibody, human IgG1, kappa, V domains shown)
VH: B2 VH
VL: DIVMTQTPLSLSVTPGQPASISCKASKKVTIFGSISALHWYLQKPGQPPQLIYNGAKLESGVSDRFSDSGSGTDFTLKISRVEAEDVGVYYCLQNKEVPYTFGGGTKVEIKR
notes: Full length chains
IC50 (read off the curve) (recombinant human IL-23 [3]): ~800 pM | EC50 (read off the curve) (recombinant human IL-23 [4]): ~40 pM | IC50 (read off the curve) [5]: ~1000 pM | Kd (recombinant human IL-23 [6]): 1500 pM | koff (recombinant human IL-23 [6]): 0.00041 s⁻¹ | kon (recombinant human IL-23 [6]): 280000 M⁻¹ s⁻¹ | Kd (recombinant human IL-23 [7]): 1600 pM | koff (recombinant human IL-23 [7]): 0.00038 s⁻¹ | kon (recombinant human IL-23 [7]): 240000 M⁻¹ s⁻¹

B4: A9M3 (antibody, V domains shown)
VH: B2 VH with N51D, S99V
VL: DIVMTQSPDSLAVSLGERATINCKASKKVTIFGSTSALHWYQQKPGQPPKLIYNGAKLESGVPDRFSGSGSGTDFTLTISSLQAEDVAVYYCLQNKEVPYTFGGGTKVEIK
IC50 (read off the curve) (recombinant human IL-23 [3]): ~100 pM | Kd (recombinant human IL-23 [8]): 65 pM | koff (recombinant human IL-23 [8]): 0.000171 s⁻¹ | kon (recombinant human IL-23 [8]): 2.64e+06 M⁻¹ s⁻¹

B5: A8M3 (antibody, V domains shown)
VH: B2 VH with N51D, S99A
VL: B4 VL
IC50 (read off the curve) (recombinant human IL-23 [3]): ~200 pM | Kd (recombinant human IL-23 [8]): 80 pM | koff (recombinant human IL-23 [8]): 0.000135 s⁻¹ | kon (recombinant human IL-23 [8]): 1.67e+06 M⁻¹ s⁻¹
